Experimental data: paper PMC2835750, “A Direct Interaction with NEDD1 Regulates γ-Tubulin Recruitment to the Centrosome” (PLoS ONE, 2010)

Key:
[1] = biological target: the molecule itself; experiment: SEC-MALS; data not shown; single peak not affected by dilution; oligomeric state
[2] = biological target: the molecule itself; experiment: SEC-MALS; Superdex 200 HR 10/30, 50 mM NaP, 300 mM NaCl, 1 mM DTT, pH 8.0; oligomeric state

Row | Protein | stoichiometry N [1] | stoichiometry N [2]
1 | NEDD1 fragment (residues 549–660) (domain or fragment, human, UniProt Q8NHV4 549-660, looked up, NEDD1, human, residues 549-660; predicted mass 12.8 kDa; also called additional fragment of NEDD1 that included residues 549–660) STPNPKIASSVTAGVASSLSEKIADSIGNNRQNAPLTSIQIRFIQNMIQETLDDFREACHRDIVNLQVEMIKQFHMQLNEMHSLLERYSVNEGLVAEIERLREENKRLRAHF | 4 | –
2 | NEDD1 CTD L642Q, GST removed (domain or fragment, human, UniProt Q8NHV4 572-660, looked up, source: E. coli BL21 star (DE3), purified (glutathione resin, thrombin, SEC)) ADSIGNNRQNAPLTSIQIRFIQNMIQETLDDFREACHRDIVNLQVEMIKQFHMQLNEMHSLLERYSVNEGQVAEIERLREENKRLRAHF | – | 4
3 | NEDD1 CTD L642Q/L649Q/L656Q (3xLQ), GST removed (domain or fragment, human, UniProt Q8NHV4 572-660, looked up, also called triple 3×LQ; triple 3xLQ; source: E. coli BL21 star (DE3), purified (glutathione resin, thrombin, SEC)) ADSIGNNRQNAPLTSIQIRFIQNMIQETLDDFREACHRDIVNLQVEMIKQFHMQLNEMHSLLERYSVNEGQVAEIERQREENKRQRAHF | – | 4
4 | NEDD1 CTD (residues 572–660), GST removed (domain or fragment, human, UniProt Q8NHV4 572-660, looked up, calculated mass 10.5 kDa; also called NEDD1 CTD WT; purified CTD; source: E. coli BL21 star (DE3), purified (glutathione resin, thrombin, SEC)) ADSIGNNRQNAPLTSIQIRFIQNMIQETLDDFREACHRDIVNLQVEMIKQFHMQLNEMHSLLERYSVNEGLVAEIERLREENKRLRAHF | – | 4
5 | NEDD1 CTD Y636A/S637A, GST removed (domain or fragment, human, UniProt Q8NHV4 572-660, looked up, also called YS (Y636A/S637A) mutant NEDD1; source: E. coli BL21 star (DE3), purified (glutathione resin, thrombin, SEC)) ADSIGNNRQNAPLTSIQIRFIQNMIQETLDDFREACHRDIVNLQVEMIKQFHMQLNEMHSLLERAAVNEGLVAEIERLREENKRLRAHF | – | 4
